Drawing on paper PMC9888386 (The Journal of Clinical Investigation, 2023), this text covers Kd for one molecule.

In general, Kd refers to the free concentration of one partner at which half of the binding sites on the other are occupied at equilibrium, for simple one-to-one binding.

The target in this assay is T1, KEAP1 (microscale thermophoresis assay) (UniProt Q14145 1-624).
T1 construct: KEAP1 as used in the microscale thermophoresis assay; May be the same as GST-KEAP1-WT
Kind of assay: MST; microscale thermophoresis; conditions in the Supplemental Methods, not shown. In general terms: In MST a laser heats a spot of the sample, and binding alters the fluorescence response.

T1 sequence (Q14145 whole entry): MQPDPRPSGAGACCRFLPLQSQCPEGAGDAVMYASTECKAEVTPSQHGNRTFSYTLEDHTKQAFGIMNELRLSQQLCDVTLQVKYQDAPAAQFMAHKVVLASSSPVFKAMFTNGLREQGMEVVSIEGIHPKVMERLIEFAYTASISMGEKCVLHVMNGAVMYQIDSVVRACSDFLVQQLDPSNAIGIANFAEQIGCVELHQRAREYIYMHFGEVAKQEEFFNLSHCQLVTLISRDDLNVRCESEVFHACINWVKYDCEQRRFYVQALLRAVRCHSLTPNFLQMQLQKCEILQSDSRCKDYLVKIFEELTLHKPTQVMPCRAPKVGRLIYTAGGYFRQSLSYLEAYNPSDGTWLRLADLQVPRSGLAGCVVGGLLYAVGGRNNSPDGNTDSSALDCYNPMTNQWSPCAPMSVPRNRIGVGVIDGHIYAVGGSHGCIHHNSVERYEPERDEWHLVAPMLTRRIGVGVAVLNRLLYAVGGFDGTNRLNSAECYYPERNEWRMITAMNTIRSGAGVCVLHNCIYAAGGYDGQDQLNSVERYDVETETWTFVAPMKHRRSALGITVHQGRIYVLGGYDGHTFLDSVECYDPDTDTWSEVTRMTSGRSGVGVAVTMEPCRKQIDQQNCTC

B1: truncated NRF2 (NRF2^ΔDLG) (natural protein)
chain: MMDLELPPPGLPSQQDMDLIDILWRQDIVSREVFDFSQRRKEYELEKQKKLEKERQEQLQKEQEKAFFAQLQLDEETGEFLPIQPAQHIQSETSGSANYSQVAHIPKSDALYFDDCMQLLAQTFPFVDDNEVSSATFQSLVPDIPGHIESPVFIATNQAQSPETSVAQVAPVDLDGMQQDIEQVWEELLSIPELQCLNIENDKLVETTMVPSPEAKLTEVDNYHFYSSIPSMEKEVGNCSPHFLNAFEDSFSSILSTEDPNQLTVNSLNSDATVNTDFGDEFYSAFIAEPSISNSMPSPATLSHSLSELLNGPIDVSDLSLCKAFNQNHPESTAEFNDSDSGISLNTSPSVASPEHSVESSSYGDTLLGLSDSEVEELDSAPGSVKQNGPKTPVHSSGDMVQPLSPSQGQSTHVHDAQCENTPEKELPVSPGHRKTPFTKDKHSSRLEAHLTRDELRAKALHIPFPVEKIINLPVVDFNEMMSKEQFNEAQLALIRDIRRRGKNKVAAQNCRKRKLENIVELEQDLDHLKDEKEKLLKEKGENDKSLHLLKKQLSTLYLEVFSMLRDEDGKPYSPSEYSLQQTRDGNVFLVPKSKKPDVKKN
B1 yielded a Kd of 5.28 µM.
